In test [1] the target is T1, recombinant human galectin-9 (human, UniProt O00182-2 2-323, limits assumed).
T1 construct: Bought; also called Gal9; Ga19 (so in the source)
Description: SPR (BIAcore 3000), 8F4 captured by anti-mouse antibody on CM-5 chip, galectin as analyte. The method, then: (§1) Surface Plasmon Resonance (SPR) analyses (also called Biomolecular Interaction Analysis, BlAcore) were also conducted in order to further define the biophysical properties (e.g., kₒₙ, koff, koffkₒₙ (KD) of Gal1's interaction with the 8F4 mAb. SPR experiments were performed at 25° C. in the standard BlAcore running buffer HBS-EP on a BlAcore 3000 Instrument (BlAcore). In brief, anti-mouse antibody was first captured on the CM-5 sensor chip (GE HealthCare). Afterwards, approximately 250 response units (RU) of the 8F4 anti-Gal1 mAb were immobilized (with exception of ˜350 RU for rmGal1 assay) and followed by various dilutions of recombinant galectin (human galetin-1, 2, 3, 4, 7, 8, 9 or murine galectin-1 (mGal1), from R&D Systems) to assess the binding of galectin to 8F4. All data are shown after subtraction from a channel loaded with buffer alone. Data analysis to obtain the binding curves shown and equilibrium dissociation constant (KD) was performed using BlAevaluation 3.1 (BlAcore) by globally fitting the data to a simple 1:1 (Langmuir) binding model.

Test [2] deals with T2, recombinant human galectin-7 (human, UniProt P47929 2-136, limits assumed).
T2 construct: Bought; also called Gal7; Ga17 (so in the source)
T2 sequence (P47929 2-136 limits assumed): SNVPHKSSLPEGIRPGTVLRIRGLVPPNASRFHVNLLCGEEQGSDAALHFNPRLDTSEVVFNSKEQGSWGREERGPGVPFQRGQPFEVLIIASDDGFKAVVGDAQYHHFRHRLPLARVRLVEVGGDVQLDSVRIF
The description is as above. The method, then: as §1

Test [3] has as its target T3, recombinant human galectin-3 (human, UniProt P17931 2-250).
T3 construct: Bought; also called Gal3; Ga13 (so in the source)
The test is described as above. The method, then: as §1

Test [4] deals with T4, recombinant human galectin-4 (human, UniProt P56470 2-323, limits assumed).
T4 construct: Bought; also called Gal4; Ga14 (so in the source)
T4 sequence (looked up): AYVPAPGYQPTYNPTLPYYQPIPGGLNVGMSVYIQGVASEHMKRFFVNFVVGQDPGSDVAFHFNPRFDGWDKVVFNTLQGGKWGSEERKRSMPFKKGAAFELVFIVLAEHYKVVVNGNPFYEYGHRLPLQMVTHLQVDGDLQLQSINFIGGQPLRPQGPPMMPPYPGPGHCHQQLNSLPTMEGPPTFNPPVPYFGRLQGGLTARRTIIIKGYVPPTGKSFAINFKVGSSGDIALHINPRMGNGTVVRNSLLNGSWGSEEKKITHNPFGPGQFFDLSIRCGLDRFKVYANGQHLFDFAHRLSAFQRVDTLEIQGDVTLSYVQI
The test is described as above. The method, then: as §1

In test [5] the target is T5, recombinant human galectin-2 (human, UniProt P05162 2-132, limits assumed).
T5 construct: Bought; also called Gal2; Ga12 (so in the source)
T5 sequence (looked up): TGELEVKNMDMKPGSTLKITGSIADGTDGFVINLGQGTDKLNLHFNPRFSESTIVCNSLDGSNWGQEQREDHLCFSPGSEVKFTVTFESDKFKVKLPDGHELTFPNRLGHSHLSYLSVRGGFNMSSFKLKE
Described as above. The method, then:
as §1

For test [6], the target named is T6, recombinant human galectin-8 (human, UniProt O00214 1-317, limits assumed).
T6 construct: Bought; also called Gal8; Ga18 (so in the source)
T6 sequence (looked up): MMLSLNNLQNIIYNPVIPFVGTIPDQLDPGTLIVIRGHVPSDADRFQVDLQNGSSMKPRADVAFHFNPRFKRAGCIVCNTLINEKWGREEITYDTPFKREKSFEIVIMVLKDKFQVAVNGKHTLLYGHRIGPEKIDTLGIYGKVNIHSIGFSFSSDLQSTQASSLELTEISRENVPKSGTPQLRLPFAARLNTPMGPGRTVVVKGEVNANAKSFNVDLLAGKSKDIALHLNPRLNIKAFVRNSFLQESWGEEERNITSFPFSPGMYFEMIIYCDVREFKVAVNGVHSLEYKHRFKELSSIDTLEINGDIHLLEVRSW
The description is as above. The method, then: as §1

Another test has as its target T7, mouse galectin-1 (Gal1) (mouse, UniProt P16045 2-135).
T7 construct: Used as recombinant protein bought from R&D Systems (SPR) and as endogenous protein in B16-F10 cell lysate (Western blot); also called mGal1; rmGal1
Description: SPR (BIAcore 3000, 25 C, HBS-EP), 8F4 captured by anti-mouse antibody on CM-5 chip, galectin as analyte, 1:1 Langmuir fit; rmGal1 as analyte; ~350 RU of 8F4 captured. The method, then:
as §1
(In general: Surface plasmon resonance follows binding to a sensor surface in real time, without labels.)

A further test has as its target T8, human galectin-1 (Gal1) (human, UniProt P09382 2-135).
T8 construct: Used as recombinant protein bought from R&D Systems (SPR) and as endogenous protein in L428 cell lysate (Western blot); also called hGal1; rhGal1
Description: SPR (BIAcore 3000, 25 C, HBS-EP), 8F4 captured by anti-mouse antibody on CM-5 chip, galectin as analyte, 1:1 Langmuir fit; rhGal1 as analyte; ~250 RU of 8F4 captured. The method, then:
as §1

T1 sequence (O00182 other isoform, or with tags, fused parts or gaps limits assumed): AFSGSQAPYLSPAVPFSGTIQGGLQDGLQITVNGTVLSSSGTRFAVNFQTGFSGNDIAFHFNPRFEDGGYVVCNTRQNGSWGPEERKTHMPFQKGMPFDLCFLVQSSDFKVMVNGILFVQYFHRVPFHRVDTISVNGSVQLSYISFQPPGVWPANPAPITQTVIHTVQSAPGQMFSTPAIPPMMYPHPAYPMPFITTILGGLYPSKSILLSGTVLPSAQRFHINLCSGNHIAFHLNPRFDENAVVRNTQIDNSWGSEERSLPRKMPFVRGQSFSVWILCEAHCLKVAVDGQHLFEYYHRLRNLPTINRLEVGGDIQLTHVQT
T7 sequence (P16045 2-135 limits assumed): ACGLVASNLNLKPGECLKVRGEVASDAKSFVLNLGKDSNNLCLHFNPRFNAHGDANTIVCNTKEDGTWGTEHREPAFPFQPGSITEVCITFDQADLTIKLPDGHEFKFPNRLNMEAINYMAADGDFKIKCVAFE
T3 sequence (P17931 2-250 limits assumed): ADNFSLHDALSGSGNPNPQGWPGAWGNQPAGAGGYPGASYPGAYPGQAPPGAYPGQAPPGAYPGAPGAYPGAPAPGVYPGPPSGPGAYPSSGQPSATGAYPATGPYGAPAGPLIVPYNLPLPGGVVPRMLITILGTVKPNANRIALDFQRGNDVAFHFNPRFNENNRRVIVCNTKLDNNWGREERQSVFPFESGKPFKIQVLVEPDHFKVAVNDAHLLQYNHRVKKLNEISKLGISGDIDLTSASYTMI
T8 sequence (P09382 2-135 limits assumed): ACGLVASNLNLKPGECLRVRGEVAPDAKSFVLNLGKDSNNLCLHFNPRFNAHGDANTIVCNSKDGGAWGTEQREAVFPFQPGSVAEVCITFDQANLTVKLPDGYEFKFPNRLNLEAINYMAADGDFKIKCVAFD

B1: 8F4 anti-Gal1 monoclonal antibody (antibody, V domains shown)
VH: EVQLQQSVAEFVRPGASVRLSCTASGFNIKNTYIHWVRQRPEQGLEWIGKIDPANGNTKYVPEFQGKATMTADTSSNTVYLHLSSLTSEDTAIYYCVDGYYGWYFAVWGTGTTVTVSS
VL: QAVVTQESALTTSPGETVTLTCRSSTGAVTTSNYANWVQEKPDHLFTGLIGATNNRAPGVPARFSGSLIGDKAVLTITGAQTEDEAIYFCALWYRNHFIFGSGTKVTVL
notes: Hybridoma monoclonal antibody; The light chain is lambda; Hybridoma 8F4.F8.G7 is deposited as ATCC PTA-10535; also called 8F4 mAb; 8F4.F8.G7
B1: the binding result in test [1], in test [2], in test [3], in test [4], in test [5] and in test [6] was “no binding” throughout. The Kd was 38.5 nM in the test with mouse galectin-1 (Gal1) and 13 nM with human galectin-1 (Gal1).

The term Kd denotes the free concentration of one partner at which half of the binding sites on the other are occupied at equilibrium, for simple one-to-one binding. Read a low Kd as higher affinity.
